This assay addresses human zFGF5 (FGF homolog polypeptide) (human) (UniProt O76093). Put plainly: cell-based or functional assay.

human zFGF5 (FGF homolog polypeptide) (human), sequence (O76093 28-207): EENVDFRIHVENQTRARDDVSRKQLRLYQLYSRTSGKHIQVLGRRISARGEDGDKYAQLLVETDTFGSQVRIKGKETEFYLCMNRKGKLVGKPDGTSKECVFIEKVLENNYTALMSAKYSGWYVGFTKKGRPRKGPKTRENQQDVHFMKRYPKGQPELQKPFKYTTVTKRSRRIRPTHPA

Substance “FGFR2α-IIIb/Fc soluble receptor (from UniProt P21802 22-378) (Fc fusion)” gave a Cell Proliferation (percent of control) at 0 fold-excess of soluble receptor (percent of control) of 100, a Cell Proliferation (percent of control) at 62.5 fold-excess of soluble receptor (percent of control) of 101, a Cell Proliferation (percent of control) at 125 fold-excess of soluble receptor (percent of control) of 90 and a Cell Proliferation (percent of control) at 250 fold-excess of soluble receptor (percent of control) of 91. This substance returned a Cell Proliferation (percent of control) at 500 fold-excess of soluble receptor (percent of control) of 101 and a Cell Proliferation (percent of control) at 1000 fold-excess of soluble receptor (percent of control) of 99.
As to “FGFR3α-IIIc/Fc soluble receptor (Fc fusion)”, the Cell Proliferation (percent of control) at 0 fold-excess of soluble receptor (percent of control) amounted to 100, the Cell Proliferation (percent of control) at 0.8 fold-excess of soluble receptor (percent of control) came out at 85, the Cell Proliferation (percent of control) at 1.6 fold-excess of soluble receptor (percent of control) amounted to 66 and the Cell Proliferation (percent of control) at 3.2 fold-excess of soluble receptor (percent of control) is 37. This substance came in with a Cell Proliferation (percent of control) at 6.3 fold-excess of soluble receptor (percent of control) of 5, a Cell Proliferation (percent of control) at 12.5 fold-excess of soluble receptor (percent of control) of 1, a Cell Proliferation (percent of control) at 25 fold-excess of soluble receptor (percent of control) of 0.2 and a Cell Proliferation (percent of control) at 50 fold-excess of soluble receptor (percent of control) of 0. This substance also came in with a Cell Proliferation (percent of control) at 100 fold-excess of soluble receptor (percent of control) of 0.

Values taken from patent US20120171723A1.
